For one molecule, Ki results are on record in article PMC10063552, “Utilizing genetic code expansion to modify N-TIMP2 specificity towards MMP-2, MMP-9, and MMP-14” (Scientific Reports, 2023).

Assay in all cases: enzyme inhibition assay (cleavage of a chromogenic substrate, fit to Morrison's tight binding equation); MMP-2ACT (0.6 nM), MMP-9CAT (3 nM) or MMP-14CAT (1 nM) incubated with 0-25 nM N-TIMP2 variant in 50 mM HEPES, 10 mM CaCl2, 0.05% Brij-35, 1 mM DTNB, pH 7.5, 1 h at 37 °C; then 100 µM chromogenic substrate, absorbance at 412 nm at 37 °C; Ki from three independent experiments
Holding throughout (conditions): both partners purified

Experiment [1] addresses T1, human MMP-14 catalytic domain (MMP-14CAT) (human, UniProt P50281 112-292).
T1 construct: Matrix metalloproteinase-14 (MMP-14), human, catalytic domain, residues 112-292

Experiment [2] concerns the target T2, human MMP-9 catalytic domain (MMP-9CAT) (human, UniProt P14780 107-215; P14780 391-443).
T2 construct: Matrix metalloproteinase-9 (MMP-9), human, catalytic domain, first stretch, residues 107-215; Matrix metalloproteinase-9 (MMP-9), human, catalytic domain, second stretch, residues 391-443 (residues 216-390 left out); no linker between the two stretches is stated
T2 chain (looked up): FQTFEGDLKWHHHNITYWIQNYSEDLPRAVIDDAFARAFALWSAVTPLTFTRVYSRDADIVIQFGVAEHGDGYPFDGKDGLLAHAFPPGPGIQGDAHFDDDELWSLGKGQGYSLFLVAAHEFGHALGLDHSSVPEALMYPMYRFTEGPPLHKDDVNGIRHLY

Experiment [3] concerns the target T3, activated MMP-2 (MMP-2ACT) (human, APMA-activated in vitro (propeptide 30-109 removed); catalytic Zn2+, structural Zn2+ and Ca2+ ions. Limits are not printed: full-length active chain taken from the UniProt feature. The tables label it).
T3 chain: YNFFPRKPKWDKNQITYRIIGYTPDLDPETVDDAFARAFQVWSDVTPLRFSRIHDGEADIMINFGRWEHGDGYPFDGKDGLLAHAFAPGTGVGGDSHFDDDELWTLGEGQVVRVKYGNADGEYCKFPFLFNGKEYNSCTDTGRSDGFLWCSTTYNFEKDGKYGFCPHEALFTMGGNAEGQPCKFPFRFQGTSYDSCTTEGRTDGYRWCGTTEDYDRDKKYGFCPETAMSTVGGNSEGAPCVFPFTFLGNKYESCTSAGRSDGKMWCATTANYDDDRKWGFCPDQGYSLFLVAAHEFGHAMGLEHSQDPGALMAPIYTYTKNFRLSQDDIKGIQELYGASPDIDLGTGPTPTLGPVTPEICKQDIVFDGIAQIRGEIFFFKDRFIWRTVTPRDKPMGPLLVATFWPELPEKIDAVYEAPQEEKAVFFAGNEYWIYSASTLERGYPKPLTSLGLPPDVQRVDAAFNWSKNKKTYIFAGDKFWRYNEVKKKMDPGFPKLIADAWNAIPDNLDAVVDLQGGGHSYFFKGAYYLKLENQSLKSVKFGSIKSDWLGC

Broadly, the Ki is a measure of affinity in units of concentration, obtained from inhibition or displacement.

B1: N-terminal domain of TIMP2 (N-TIMP2), wild type (domain or fragment, human, UniProt P16035 27-153, looked up)
chain: CSCSPVHPQQAFCNADVVIRAKAVSEKEVDSGNDIYGNPIKRIQYEIKQIKMFKGPEKDIEFIYTAPSSAVCGVSLDVGGKKEYLIAGKAEGDGKMHITLCDFIVPWDTLSTTQKKSLNHRYQMGCE
notes: numbers count on: the mature protein (Cys1 is the N-terminal residue); Cloned into the pMECS vector; also called wild-type N-TIMP2; parental N-TIMP2; source: E. coli WK6, periplasmic extract, purified (Ni-NTA)
B1: the values for the Ki in experiment [1], in experiment [2] and in experiment [3] were 711 pM, 322 pM and 233 pM, respectively.
